Values joined by “and” are separate entries in the source; they are usually repeats but may differ in a detail not shown here. Equal values may be shown once. Read-outs that look alike come from different tables or passages of the source.
Conditions: for Any DLTs: first 2 cycles
[1] = G3, cols c1,3,5,7,9,11,13=0.03,0.1,0.3,1,3,5,10 mg/kg, c15 overall N=20
[2] = G4, cols c2,4,6,8,10,12,14=0.03,0.1,0.3,1,3,5,10 mg/kg, c16 overall N=20
[3] = G4, cols c2,4,6,8,10,12,14=0.03,0.1,0.3,1,3,5,10 mg/kg, last col overall N=20

ADG106: fully human agonistic anti-CD137 monoclonal IgG4 antibody; heavy chain SEQ ID NO: 10, light chain SEQ ID NO: 11
>=G3 adverse events (0.03 mg/kg N=1): 1 (100) n (%)
Any Drug Related TEAEs (0.03 mg/kg N=1): 1 (100) n (%)
Any SAE (0.03 mg/kg N=1): 0 n (%)
Any TEAEs Leading to Study Drug Discontinuation (0.03 mg/kg N=1): 0 n (%)
Any TEAEs leading to Study Drug Dose Reduction or Interruption (0.03 mg/kg N=1): 1 (100) n (%)
Any TEAEs with Outcome of Death (0.03 mg/kg N=1): 0 n (%)
Drug Related SAE (0.03 mg/kg N=1): 0 n (%)
SAE leading to Drug discontinuation (0.03 mg/kg N=1): 0 n (%)
Any DLTs (0.03 mg/kg N=1): 0 n (%)
>=G3 adverse events (0.1 mg/kg N=2): 0 n (%)
Any Drug Related TEAEs (0.1 mg/kg N=2): 2 (100) n (%)
Any SAE (0.1 mg/kg N=2): 0 n (%)
Any TEAEs Leading to Study Drug Discontinuation (0.1 mg/kg N=2): 0 n (%)
Any TEAEs leading to Study Drug Dose Reduction or Interruption (0.1 mg/kg N=2): 0 n (%)
Any TEAEs with Outcome of Death (0.1 mg/kg N=2): 0 n (%)
Drug Related SAE (0.1 mg/kg N=2): 0 n (%)
SAE leading to Drug discontinuation (0.1 mg/kg N=2): 0 n (%)
Any DLTs (0.1 mg/kg N=2): 0 n (%)
>=G3 adverse events (0.3 mg/kg N=1): 1 (100) n (%)
Any Drug Related TEAEs (0.3 mg/kg N=1): 1 (100) n (%)
Any SAE (0.3 mg/kg N=1): 0 n (%)
Any TEAEs Leading to Study Drug Discontinuation (0.3 mg/kg N=1): 0 n (%)
Any TEAEs leading to Study Drug Dose Reduction or Interruption (0.3 mg/kg N=1): 0 n (%)
Any TEAEs with Outcome of Death (0.3 mg/kg N=1): 0 n (%)
Drug Related SAE (0.3 mg/kg N=1): 0 n (%)
SAE leading to Drug discontinuation (0.3 mg/kg N=1): 0 n (%)
Any DLTs (0.3 mg/kg N=1): 0 n (%)
>=G3 adverse events (0.5 mg/kg N=3): 0 n (%)
Any Drug Related TEAEs (0.5 mg/kg N=3): 2 (67) n (%)
Any SAE (0.5 mg/kg N=3): 0 n (%)
Any TEAEs Leading to Study Drug Discontinuation (0.5 mg/kg N=3): 0 n (%)
Any TEAEs leading to Study Drug Dose Reduction or Interruption (0.5 mg/kg N=3): 0 n (%)
Any TEAEs with Outcome of Death (0.5 mg/kg N=3): 0 n (%)
Drug Related SAE (0.5 mg/kg N=3): 0 n (%)
SAE leading to Drug discontinuation (0.5 mg/kg N=3): 0 n (%)
Any DLTs (0.5 mg/kg N=3): 0 n (%)
>=G3 adverse events (1 mg/kg N=4): 3 (75) n (%)
Any Drug Related TEAEs (1 mg/kg N=4): 4 (100) n (%)
Any SAE (1 mg/kg N=4): 1 (25) n (%)
Any TEAEs Leading to Study Drug Discontinuation (1 mg/kg N=4): 1 (25) n (%)
Any TEAEs leading to Study Drug Dose Reduction or Interruption (1 mg/kg N=4): 0 n (%)
Any TEAEs with Outcome of Death (1 mg/kg N=4): 1 (25) n (%)
Drug Related SAE (1 mg/kg N=4): 0 n (%)
SAE leading to Drug discontinuation (1 mg/kg N=4): 0 n (%)
Any DLTs (1 mg/kg N=4): 0 n (%)
>=G3 adverse events (1.5 mg/kg N=5): 0 n (%)
Any Drug Related TEAEs (1.5 mg/kg N=5): 2 (40) n (%)
Any SAE (1.5 mg/kg N=5): 1 (20) n (%)
Any TEAEs Leading to Study Drug Discontinuation (1.5 mg/kg N=5): 0 n (%)
Any TEAEs leading to Study Drug Dose Reduction or Interruption (1.5 mg/kg N=5): 0 n (%)
Any TEAEs with Outcome of Death (1.5 mg/kg N=5): 0 n (%)
Drug Related SAE (1.5 mg/kg N=5): 0 n (%)
SAE leading to Drug discontinuation (1.5 mg/kg N=5): 0 n (%)
Any DLTs (1.5 mg/kg N=5): 0 n (%)
>=G3 adverse events (3 mg/kg N=12): 4 n (%)
Any Drug Related TEAEs (3 mg/kg N=12): 6 n (%)
Any SAE (3 mg/kg N=12): 3 n (%)
Any TEAEs Leading to Study Drug Discontinuation (3 mg/kg N=12): 1 n (%)
Any TEAEs leading to Study Drug Dose Reduction or Interruption (3 mg/kg N=12): 0 n (%)
Any TEAEs with Outcome of Death (3 mg/kg N=12): 1 n (%)
Drug Related SAE (3 mg/kg N=12): 0 n (%)
SAE leading to Drug discontinuation (3 mg/kg N=12): 0 n (%)
Any DLTs (3 mg/kg N=12): 0 n (%)
>=G3 adverse events (5 mg/kg N=7): 2 (39) n (%)
Any Drug Related TEAEs (5 mg/kg N=7): 4 (57) n (%)
Any SAE (5 mg/kg N=7): 3 (43) n (%)
Any TEAEs Leading to Study Drug Discontinuation (5 mg/kg N=7): 1 (14) n (%)
Any TEAEs leading to Study Drug Dose Reduction or Interruption (5 mg/kg N=7): 0 n (%)
Any TEAEs with Outcome of Death (5 mg/kg N=7): 0 n (%)
Drug Related SAE (5 mg/kg N=7): 2 (29) n (%)
SAE leading to Drug discontinuation (5 mg/kg N=7): 1 (14) n (%)
Any DLTs (5 mg/kg N=7): 1 n (%) and 1 (14) n (%)
>=G3 adverse events (10 mg/kg N=5): 4 (80) n (%)
Any Drug Related TEAEs (10 mg/kg N=5): 4 (80) n (%)
Any SAE (10 mg/kg N=5): 2 (40) n (%)
Any TEAEs Leading to Study Drug Discontinuation (10 mg/kg N=5): 2 (40) n (%)
Any TEAEs leading to Study Drug Dose Reduction or Interruption (10 mg/kg N=5): 0 n (%)
Any TEAEs with Outcome of Death (10 mg/kg N=5): 0 n (%)
Drug Related SAE (10 mg/kg N=5): 2 (40) n (%)
SAE leading to Drug discontinuation (10 mg/kg N=5): 2 (40) n (%)
SAEs related to the study treatment (China update): 7
DLT observed (China update Nov. 30, 2020, 18 dose escalation patients, Grade 4 neutrophil count decreased at 10 mg/kg): 1
TEAE C-reactive protein increase (China update, 57 patients): 35%
TEAE anemia (China update, 57 patients): 46%
TEAE aspartate aminotransferase increase (China update, 57 patients): 32%
TEAE asthenia (China update, 57 patients): 30%
TEAE blood present in urine (China update, 57 patients): 21%
TEAE constipation (China update, 57 patients): 25%
TEAE cough (China update, 57 patients): 23%
TEAE hypoalbuminaemia (China update, 57 patients): 30%
TEAE hypochloraemia (China update, 57 patients): 23%
TEAE hyponatraemia (China update, 57 patients): 30%
TEAE platelet count increase (China update, 57 patients): 21%
TEAE proteinuria (China update, 57 patients): 39%
TEAE pruritus (China update, 57 patients): 21%
TEAE rash (China update, 57 patients): 25%
TEAE white blood cell count decrease (China update, 57 patients): 26%
TEAE white blood cell count increase (China update, 57 patients): 21%
patients with G3 to 4 TEAEs (China update, 21 patients): 35%
SAEs (all causes) (China update, in 11 patients): 15
Lab abnormality Leukocyte ↓, patients [1]: 0
Lab abnormality Neutrophil ↓, patients [1]: 0
Lab abnormality Platelet ↓, patients [1]: 0
TEAE Arthralgia, patients [1]: 0
TEAE Constipation, patients [1]: 0
TEAE Cough, patients [1]: 0
TEAE Dehydration, patients [1]: 0
TEAE Fever, patients [1]: 0
TEAE Hypothyroidism, patients [1]: 0
TEAE Myalgia, patients [1]: 0
TEAE Peripheral edema, patients [1]: 0
TEAE Weight ↓, patients [1]: 0
Lab abnormality Hemoglobin ↓, patients [2]: 0
Lab abnormality Leukocyte ↓, patients [2]: 0
Lab abnormality Neutrophil ↓, patients [2]: 0
Lab abnormality Platelet ↓, patients [2]: 0
TEAE (preferred term not given), patients [3]: 0
TEAE AST increase, patients [3]: 0
TEAE Anemia, patients [3]: 0
TEAE Appetite ↓, patients [3]: 0
TEAE Arthralgia, patients [3]: 0
TEAE Constipation, patients [3]: 0
TEAE Cough, patients [3]: 0
TEAE Dehydration, patients [3]: 0
TEAE Diarrhea, patients [3]: 0
TEAE Dyspnea, patients [3]: 0
TEAE Fever, patients [3]: 0
TEAE Hypothyroidism, patients [3]: 0
TEAE Lymphopenia, patients [3]: 0
TEAE Myalgia, patients [3]: 0
TEAE Peripheral edema, patients [3]: 0
TEAE Respiratory failure, patients [3]: 0
TEAE Tumor pain, patients [3]: 0
TEAE Vomiting, patients [3]: 0
TEAE Weight ↓, patients [3]: 0
>=G3 adverse events (Overall N=40): 15 n (%)
Any Drug Related TEAEs (Overall N=40): 26 n (%)
Any SAE (Overall N=40): 10 n (%)
Any TEAEs Leading to Study Drug Discontinuation (Overall N=40): 5 n (%)
Any TEAEs leading to Study Drug Dose Reduction or Interruption (Overall N=40): 1 n (%)
Any TEAEs with Outcome of Death (Overall N=40): 2 n (%)
Drug Related SAE (Overall N=40): 4 n (%)
SAE leading to Drug discontinuation (Overall N=40): 3 n (%)
Any DLTs (Overall N=40): 3 n (%)
≥Grade 4 TEAEs (Table 6 population): there was no≥Grade 4 TEAEs
dose below which ≥G3 treatment related AEs were not observed (US and China trials): less than 3 mg/kg
total dose at which ADG106 was well tolerated (US and China trials): below 500 mg
dose at which DLT occurs, by body weight (US and Chinese patients): around 10 mg/kg
total dose at which DLT occurs (US and Chinese patients): ~500 mg
tolerability of flat Q3W IV dose of 300 mg and 400 mg (US trial): safe and well tolerated
G3 ALP increase (US update): 2/35
G3 GGT increase (US update): 3/35
G3 or G4 decreases of leukocytes, platelets, and neutrophils (US update): There was no G3 or G4 decreases
G4 drug-related TEAEs (US update): there was no G4 drug-related TEAEs
Grade 3 AE anemia (US update): 2/35
Grade 3 AE decreased appetite (US update): 2/35
Grade 3 AE dyspnea (US update): 2/35
Grade 3 AE fatigue (US update): 5/35
Grade 3 AE tumor pain (US update): 1/35
Grade 3 AE vomiting (US update): 1/35
Grade 3 drug-related TEAE AST increase (US update): 1/35
Grade 3 drug-related TEAE adrenal insufficiency (US update): 1/35
Grade 3 drug-related TEAE anemia (US update): 1/35
Grade 3 drug-related TEAE decreased appetite (US update): 1/35
Grade 3 drug-related TEAE dyspnea (US update): 1/35
Grade 3 drug-related TEAE fatigue (US update): 3/35
Grade 3 drug-related TEAE influenza like symptoms (US update): 1/35
DLTs observed (US update Nov. 30, 2020, 7 dose escalation cohorts 0.03-10 mg/kg Q3W): 2
AE anemia, regardless of causality (US update, 35 patients): 11%
AE arthralgia, regardless of causality (US update, 35 patients): 14%
AE decreased appetite, regardless of causality (US update, 35 patients): 20%
AE dehydration, regardless of causality (US update, 35 patients): 14%
AE dizziness, regardless of causality (US update, 35 patients): 11%
AE dyspnea, regardless of causality (US update, 35 patients): 11%
AE fatigue, regardless of causality (US update, 35 patients): 29%
AE nausea, regardless of causality (US update, 35 patients): 23%
AE peripheral edema, regardless of causality (US update, 35 patients): 14%
AE tumor pain, regardless of causality (US update, 35 patients): 11%
AE vomiting, regardless of causality (US update, 35 patients): 14%
ALT increased, all grade (US update, 35 patients): 23%
AST increased, all grades (US update, 35 patients): 43%
albumin decreased, all grade (US update, 35 patients): 57%
hemoglobin decrease, all grades (US update, 35 patients): 89%
lymphocytes decrease, all grades (US update, 35 patients): 57%
patients discontinued due to adverse events (US update, 35 patients): 9%
total bilirubin increased (US update, 35 patients): 6%
SAEs related to the study treatment (US update, in 3 patients): 4
SAEs (all causes) (US update, in 13 patients): 17
TEAE anemia, regardless of causality (most common TEAEs (≥10%)): 10%
TEAE arthralgia, regardless of causality (most common TEAEs (≥10%)): 10%
TEAE decreased appetite, regardless of causality (most common TEAEs (≥10%)): 10%
TEAE dyspnea, regardless of causality (most common TEAEs (≥10%)): 10%
TEAE lymphopenia, regardless of causality (most common TEAEs (≥10%)): 15%
TEAE respiratory failure, regardless of causality (most common TEAEs (≥10%)): 10%
drug related death (up to 10 mg/kg): no drug related death

Reference: patent publication US20230133118A1, “COMPOSITIONS AND METHODS FOR TREATING CANCER” (Adagene AG, priority 2020, published 2023)
